Results on one molecule are retold here after US20070099830A1 (MIT, published 2007).

The target of the experiment is T1, glutamate dehydrogenase (endogenous, 293T cells) (human, UniProt P00367 54-558, ADP-ribosylated (32P-labelled) in the mitochondrial labelling experiments; site not stated).
T1 construct: Endogenous protein in 293T lysate or mitochondria; also called GDH
Description: anti-FLAG immunoprecipitation from 32P-NAD labelled mitochondria of 293T cells overexpressing Sirt4-FLAG, autoradiography. On the procedure:
FIG. 5. Glutamate dehydrogenase is ADP-ribosylated in vivo and interacts with Sirt4. FIG. 5A. Mitochondria (50 mg) from 293T cells were incubated with [³²P]-NAD at 37° C. for 30 min. Proteins were separated by SDS-PAGE, transferred to a nitrocellulose membrane, and radioactivity was measured by exposure to film. FIG. 5B. Mitochondrial proteins were ADP-ribosylated as described for FIG. 5A, and lysis was performed in NP-40 buffer containing 10 mM DTT and 0.5 mM EDTA. Clarified lysate was incubated with protein A resin that had been pre-incubated with antibodies against hSirt4, ANT or glutamate dehydrogenase (GDH). FIG. 5C. 293T cells were transiently transfected with 10 μg of pCMV (V) or phSirt4-FLAG (4). Cells were harvested and lysed in NP-40 buffer containing protease inhibitors and 1 mM DTT. […] An endogenous interaction between Sirt4 and glutamate dehydrogenase was determined in MIN6 cells. […] Proteins were separated by SDS-PAGE, transferred to nitrocellulose membrane, and the radioactivity was measured by exposure to x-ray film.
Mitochondria from 293T control or Sirt4-FLAG overexpressing cells were incubated with [³²P]-NAD, and the ADP-ribosylation state of glutamate dehydrogenase was measured by immunoprecipitation and subsequent autoradiography. […] Moreover, a small amount of labeled glutamate dehydrogenase could be detected in a complex with Sirt4 (FIG. 5E).

T1 sequence (P00367 54-558): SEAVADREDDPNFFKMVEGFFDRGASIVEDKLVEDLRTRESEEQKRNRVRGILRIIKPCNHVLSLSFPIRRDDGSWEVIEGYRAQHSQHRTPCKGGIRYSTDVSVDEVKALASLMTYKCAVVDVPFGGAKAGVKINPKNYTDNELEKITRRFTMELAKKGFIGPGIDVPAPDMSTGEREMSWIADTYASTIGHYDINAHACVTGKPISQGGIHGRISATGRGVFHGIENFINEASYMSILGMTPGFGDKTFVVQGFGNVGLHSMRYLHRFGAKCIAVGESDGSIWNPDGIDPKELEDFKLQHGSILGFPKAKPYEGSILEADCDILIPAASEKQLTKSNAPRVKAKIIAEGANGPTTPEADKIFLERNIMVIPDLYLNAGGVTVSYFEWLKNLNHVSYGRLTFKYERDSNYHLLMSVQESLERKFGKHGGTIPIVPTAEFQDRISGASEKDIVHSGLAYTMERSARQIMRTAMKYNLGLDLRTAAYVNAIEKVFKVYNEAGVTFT

B1: human Sirt4 with a C-terminal FLAG (enzyme)
chain: IGLFVPASPPLDPEKVKELQRFITLSKRLLVMTGAGISTESGIPDYRSEKVGLYARTDRRPIQHGDFVRSAPIRQRYWARNFVGWPQFSSHQPNPAHWALSTWEKLGKLYWLVTQNVDALHTKAGSRRLTELHGCMDRVLCLDCGEQTPRGVLQERFQVLNPTWSAEAHGLAPDGDVFLSEEQVRSFQVPTCVQCGGHLKPDVVFFGDTVNPDKVDFVHKRVKEADSLLVVGSSLQVYSGYRFILTAWEKKLPIAILNIGPTRSDDLACLKLNSRCGELLPLIDPC
notes: Overexpressed in 293T cells from phSirt4FLAG; Used in cell lysate or immunoprecipitated and eluted with FLAG peptide; also called hSirt4-FLAG; Sirt4-FLAG; not shown: C-terminal FLAG tag from vector pCMV-FLAG-4A
Consider B1, for which the binding result is “binds”.
